Earlier results as cited in US20030003565A1, “Functional lentiviral vector from an MLV-based backbone” (priority 2000, published 2003).

Conditions: patients with septic shock, constant infusion for three days; 44% with placebo infusions

B1: IL-1R: recombinant IL-1R given as constant infusion to patients with septic shock (protein, UniProt P14778 18-336, looked up)
extracellular domain: LEADKCKEREEKIILVSSANEIDVRPCPLNPNEHKGTITWYKDDSKTPVSTEQASRIHQHKEKLWFVPAKVEDSGHYYCVVRNSSYCLRIKISAKFVENEPNLCYNAQAIFKQKLPVAGDGGLVCPYMEFFKNENNELPKLQWYKDCKPLLLDNIHFSGVKDRLIVMNVAEKHRGNYTCHASYTYLGKQYPITRVIEFITLEENKPTRPVIVSPANETMEVDLGSQIQLICNVTGQLSDIAYWKWNGSVIDEDDPVLGEDYYSVENPANKRRSTLITVLNISEIESRFYKHPFTCFAKNTHGIDAAYIQLIYPVTNFQK
modifications: extracellular domain
In the case of B1, the 28 day mortality is listed as 16%.
